From patent publication US11957716B2 (Immatics Biotechnologies GmbH, priority 2021, dated 2024)

Tests used:
[1] = target: HLA-A*24:02 (Homo sapiens, UniProt P04439, D101N/D140Y/D185E/E176V/E190D/F33S/G103R/G107R/I119L/I121M/I306V/K335N/L105A/L180Q/L300P/N151K/N90K/Q86E/Q94H/R106L/R138H/R89G/T104I/T345S/V100E/W191G/Y123F); assay: MHC binding assay, UV-ligand exchange ELISA; conditions: peptide exchange yield, binding to HLA-A*24:02
Source text: (§1) Candidate peptides for T cell based therapies according to the present invention were further tested for their MHC binding capacity (affinity). The individual peptide-MHC complexes were produced by UV-ligand exchange, where a UV-sensitive peptide is cleaved upon UV-irradiation and exchanged with the peptide of interest as analyzed. Only peptide candidates that can effectively bind and stabilize the peptide-receptive MHC molecules prevent dissociation of the MHC complexes. To determine the yield of the exchange reaction, an ELISA was performed based on the detection of the light chain (β2m) of stabilized MHC complexes. The assay was performed as generally described in Rodenko et al. (Rodenko et al., 2006).
(§2) 96 well MAXISorp plates (NUNC) were coated over night with 2 μg/ml streptavidin in PBS at room temperature, washed 4× and blocked for 1 h at 37° C. in 2% BSA containing blocking buffer. Refolded HLA-A*02:01/MLA-001 monomers served as standards, covering the range of 15-500 ng/ml. Peptide-MHC monomers of the UV-exchange reaction were diluted 100-fold in blocking buffer. Samples were incubated for 1 h at 37° C., washed four times, incubated with 2 μg/ml HRP conjugated anti-82m for 1 h at 37° C., washed again and detected with TMB solution that is stopped with […]. Absorption was measured at 450 nm. Candidate peptides that show a high exchange yield (preferably higher than 50%, most preferred higher than 75%) are generally preferred for a generation and production of antibodies or fragments thereof, and/or T cell receptors or fragments thereof, as they show sufficient avidity to the MHC molecules and prevent dissociation of the MHC complexes.

[2] = test system: HLA-A*01:01, HLA-A*02:01, HLA-A*03:01, HLA-A*24:02, HLA-B*07:02, HLA-B*08:01 and HLA-B*44:02; assay: HLA alleles the peptides bind to (Table 7); type: binding, human; conditions: allotype from the group HLA-A*01:01, HLA-A*02:01, HLA-A*03:01, HLA-A*24:02, HLA-B*07:02, HLA-B*08:01, HLA-B*44:02
Source text: However, due to similarities in binding pattern such as the relevant anchoring positions some peptides bind to more than one allele, such an overlap is most likely, but not limited to, HLA-A*01 binding peptides also binding to HLA-B*15, HLA-A*03 binding peptides also binding to HLA-A*11, HLA-B*07 binding peptides also binding to HLA-B*35 and HLA-B*51.

[3] = target: HLA-B*07:0 (Homo sapiens, UniProt P01889); assay: MHC binding assay, UV-ligand exchange ELISA; conditions: peptide exchange yield, binding to HLA-B*07:0
Source text: as §1, §2

Substance	Peptide exchange [1]	Binders (HLA alleles the peptides according to the invention bind to) [2]	Peptide exchange [3]
3 (VYIASSFKI; listed as Homo sapiens) [compound 3]	++++ (75% = ++++)	HLA-A*24:02	–
6 (SHSLPAFTL; listed as Homo sapiens) [compound 6]	++ (20% = ++)	HLA-A*24:02	–
7 (IYIPTNSIYKF; listed as Homo sapiens) [compound 7]	++++ (75% = ++++)	HLA-A*24:02	–
13 (LYDTVTHTF; listed as Homo sapiens) [compound 13]	++++ (75% = ++++)	HLA-A*24:02	–
14 (ILAPPQRISF; listed as Homo sapiens) [compound 14]	++++ (75% = ++++)	HLA-A*24:02	–
16 (NFHTLAQQLLF; listed as Homo sapiens) [compound 16]	++++ (75% = ++++)	HLA-A*24:02	–
31 (VFLLLPYPRF; listed as Homo sapiens) [compound 31]	++++ (75% = ++++)	HLA-A*24:02	–
33 (AYIPFPPLI; listed as Homo sapiens) [compound 33]	++++ (75% = ++++)	HLA-A*24:02	–
40 (LYQTTIELF; listed as Homo sapiens) [compound 40]	++++ (75% = ++++)	HLA-A*24:02	–
43 (VFIPSVINL; listed as Homo sapiens) [compound 43]	++++ (75% = ++++)	HLA-A*24:02	–
47 (LYIFTTRPF; listed as Homo sapiens) [compound 47]	++++ (75% = ++++)	HLA-A*24:02	–
49 (IYFHLNNWTI; listed as Homo sapiens) [compound 49]	++++ (75% = ++++)	HLA-A*24:02	–
62 (SFSLLLPYL; listed as Homo sapiens) [compound 62]	+++ (50% = +++)	HLA-A*24:02	–
67 (GRFWLPFNF; listed as Homo sapiens) [compound 67]	++ (20% = ++)	HLA-A*24:02	–
69 (KYPTIICGF; listed as Homo sapiens) [compound 69]	++++ (75% = ++++)	HLA-A*24:02	–
76 (VQSGVPSRF; listed as Homo sapiens) [compound 76]	++ (20% = ++)	HLA-A*24:02	–
80 (IFDLSDPRF; listed as Homo sapiens) [compound 80]	++ (20% = ++)	HLA-A*24:02	–
87 (LHLNPGLSF; listed as Homo sapiens) [compound 87]	++ (20% = ++)	HLA-A*24:02	–
115 (LWEEKPVCL; listed as Homo sapiens) [compound 115]	++ (20% = ++)	HLA-A*24:02	–
116 (IYLTKSNLVNM; listed as Homo sapiens) [compound 116]	++++ (75% = ++++)	HLA-A*24:02	–
123 (TYLESSVRI; listed as Homo sapiens) [compound 123]	++++ (75% = ++++)	HLA-A*24:02	–

Substance	Peptide exchange [1]	Binders (HLA alleles the peptides according to the invention bind to) [2]	Peptide exchange [3]
132 (LYLETRSEF; listed as Homo sapiens) [compound 132]	++++ (75% = ++++)	HLA-A*24:02	–
133 (KFPPSASEF; listed as Homo sapiens) [compound 133]	++++ (75% = ++++)	HLA-A*24:02	–
158 (FQLSGPVTF; listed as Homo sapiens) [compound 158]	++ (20% = ++)	HLA-A*24:02	–
160 (EYLGSENVF; listed as Homo sapiens) [compound 160]	+++ (50% = +++)	HLA-A*24:02	–
163 (LWALAIPSL; listed as Homo sapiens) [compound 163]	+++ (50% = +++)	HLA-A*24:02	–
164 (SHSSPTVSF; listed as Homo sapiens) [compound 164]	++ (20% = ++)	HLA-A*24:02	–
165 (FYNPRPPLI; listed as Homo sapiens) [compound 165]	++++ (75% = ++++)	HLA-A*24:02	–
173 (IFTGRNAYF; listed as Homo sapiens) [compound 173]	++++ (75% = ++++)	HLA-A*24:02	–
177 (SYLKDHLSL; listed as Homo sapiens) [compound 177]	++++ (75% = ++++)	HLA-A*24:02	–
180 (QYLTYYPSF; listed as Homo sapiens) [compound 180]	++++ (75% = ++++)	HLA-A*24:02	–
183 (VFVISGSHLF; listed as Homo sapiens) [compound 183]	++++ (75% = ++++)	HLA-A*24:02	–
186 (SQIKSPVVF; listed as Homo sapiens) [compound 186]	+ (10% = +)	HLA-A*24:02	–
189 (IWRALGSLF; listed as Homo sapiens) [compound 189]	++++ (75% = ++++)	HLA-A*24:02	–
194 (VLYPSHSSF; listed as Homo sapiens) [compound 194]	++ (20% = ++)	HLA-A*24:02	–
195 (AWNESSAWLL; listed as Homo sapiens) [compound 195]	++++ (75% = ++++)	HLA-A*24:02	–
199 (RAPLPLLLL; listed as Homo sapiens) [compound 199]	–	–	+++ (≥50% = +++)
207 (LPALLRSL; listed as Homo sapiens) [compound 207]	–	–	++++ (≥75% = ++++)
208 (YVGPTRLEL; listed as Homo sapiens) [compound 208]	–	–	++++ (≥75% = ++++)
210 (ASRIQVILL; listed as Homo sapiens) [compound 210]	–	–	+++ (≥50% = +++)
214 (RPSPVRVAAL; listed as Homo sapiens) [compound 214]	–	–	++++ (≥75% = ++++)
215 (TPLTRTTL; listed as Homo sapiens) [compound 215]	–	–	+++ (≥50% = +++)
